Legend:
Experiment in all cases: AUC
[1] = molecular target: C-terminally truncated SARS-CoV main protease Δ(201–306) (SARS-CoV)
[2] = molecular target: N-terminally truncated SARS-CoV main protease Δ(1–4) (SARS-CoV)
[3] = molecular target: N-terminally truncated SARS-CoV main protease Δ(1–5) (SARS-CoV)
[4] = molecular target: N-terminally truncated SARS-CoV main protease Δ(1–6) (SARS-CoV)
[5] = molecular target: C-terminally truncated SARS-CoV main protease Δ(293–306) (SARS-CoV)
[6] = molecular target: N-terminally truncated SARS-CoV main protease Δ(1–7) (SARS-CoV)

C-terminally truncated SARS-CoV main protease Δ(201–306) (domain or fragment)
Kd [1]: 7870 µM

N-terminally truncated SARS-CoV main protease Δ(1–4) (domain or fragment)
Kd [2]: 57.5 µM

N-terminally truncated SARS-CoV main protease Δ(1–5) (domain or fragment)
Kd [3]: 35.4 µM

N-terminally truncated SARS-CoV main protease Δ(1–6) (domain or fragment)
Kd [4]: 151 µM

C-terminally truncated SARS-CoV main protease Δ(293–306) (domain or fragment)
Kd [5]: 163 µM

N-terminally truncated SARS-CoV main protease Δ(1–7) (domain or fragment)
Kd [6]: 357 µM
